US20180009871A1 (INTARCIA THERAPEUTICS, published 2018)
Where no end group is shown, it is not given here. [ ]: non-standard residue; d: D form. Aib = CC(C)(N)C(=O)O

B1: Compound A85 (peptide)
peptide: YSHGTFTSDYSKYLD[Aib]KRAQEFV[Aib]WLEDEPSSGKPPPS-NH2
modifications: N-terminus assumed
SMILES: CC(C)C[C@H](NC(=O)[C@H](Cc1ccc(O)cc1)NC(=O)[C@H](CCCCN)NC(=O)[C@H](CO)NC(=O)[C@H](Cc1ccc(O)cc1)NC(=O)[C@H](CC(=O)O)NC(=O)[C@H](CO)NC(=O)[C@@H](NC(=O)[C@H](Cc1ccccc1)NC(=O)[C@@H](NC(=O)CNC(=O)[C@H](Cc1c[nH]cn1)NC(=O)[C@H](CO)NC(=O)[C@@H](N)Cc1ccc(O)cc1)[C@@H](C)O)[C@@H](C)O)C(=O)N[C@@H](CC(=O)O)C(=O)NC(C)(C)C(=O)N[C@@H](CCCCN)C(=O)N[C@@H](CCCNC(=N)N)C(=O)N[C@@H](C)C(=O)N[C@@H](CCC(N)=O)C(=O)N[C@@H](CCC(=O)O)C(=O)N[C@@H](Cc1ccccc1)C(=O)N[C@H](C(=O)NC(C)(C)C(=O)N[C@@H](Cc1c[nH]c2ccccc12)C(=O)N[C@@H](CC(C)C)C(=O)N[C@@H](CCC(=O)O)C(=O)N[C@@H](CC(=O)O)C(=O)N[C@@H](CCC(=O)O)C(=O)N1CCC[C@H]1C(=O)N[C@@H](CO)C(=O)N[C@@H](CO)C(=O)NCC(=O)N[C@@H](CCCCN)C(=O)N1CCC[C@H]1C(=O)N1CCC[C@H]1C(=O)N1CCC[C@H]1C(=O)N[C@@H](CO)C(N)=O)C(C)C
B2: Compound A102 (peptide)
peptide: YSHGTFTSDYSKWLD[Aib]KRAQEFVKWLEDE-OH
modifications: N-terminus assumed
SMILES: CC(C)C[C@H](NC(=O)[C@H](Cc1c[nH]c2ccccc12)NC(=O)[C@H](CCCCN)NC(=O)[C@@H](NC(=O)[C@H](Cc1ccccc1)NC(=O)[C@H](CCC(=O)O)NC(=O)[C@H](CCC(N)=O)NC(=O)[C@H](C)NC(=O)[C@H](CCCNC(=N)N)NC(=O)[C@H](CCCCN)NC(=O)C(C)(C)NC(=O)[C@H](CC(=O)O)NC(=O)[C@H](CC(C)C)NC(=O)[C@H](Cc1c[nH]c2ccccc12)NC(=O)[C@H](CCCCN)NC(=O)[C@H](CO)NC(=O)[C@H](Cc1ccc(O)cc1)NC(=O)[C@H](CC(=O)O)NC(=O)[C@H](CO)NC(=O)[C@@H](NC(=O)[C@H](Cc1ccccc1)NC(=O)[C@@H](NC(=O)CNC(=O)[C@H](Cc1c[nH]cn1)NC(=O)[C@H](CO)NC(=O)[C@@H](N)Cc1ccc(O)cc1)[C@@H](C)O)[C@@H](C)O)C(C)C)C(=O)N[C@@H](CCC(=O)O)C(=O)N[C@@H](CC(=O)O)C(=O)N[C@@H](CCC(=O)O)C(=O)O
B3: Compound A99 (peptide)
peptide: YSHGTFTSDYSKYLD[Aib]KRAQEFV[Aib]WLEDEPSSGAPPPS-OH
modifications: N-terminus assumed
SMILES: CC(C)C[C@H](NC(=O)[C@H](Cc1ccc(O)cc1)NC(=O)[C@H](CCCCN)NC(=O)[C@H](CO)NC(=O)[C@H](Cc1ccc(O)cc1)NC(=O)[C@H](CC(=O)O)NC(=O)[C@H](CO)NC(=O)[C@@H](NC(=O)[C@H](Cc1ccccc1)NC(=O)[C@@H](NC(=O)CNC(=O)[C@H](Cc1c[nH]cn1)NC(=O)[C@H](CO)NC(=O)[C@@H](N)Cc1ccc(O)cc1)[C@@H](C)O)[C@@H](C)O)C(=O)N[C@@H](CC(=O)O)C(=O)NC(C)(C)C(=O)N[C@@H](CCCCN)C(=O)N[C@@H](CCCNC(=N)N)C(=O)N[C@@H](C)C(=O)N[C@@H](CCC(N)=O)C(=O)N[C@@H](CCC(=O)O)C(=O)N[C@@H](Cc1ccccc1)C(=O)N[C@H](C(=O)NC(C)(C)C(=O)N[C@@H](Cc1c[nH]c2ccccc12)C(=O)N[C@@H](CC(C)C)C(=O)N[C@@H](CCC(=O)O)C(=O)N[C@@H](CC(=O)O)C(=O)N[C@@H](CCC(=O)O)C(=O)N1CCC[C@H]1C(=O)N[C@@H](CO)C(=O)N[C@@H](CO)C(=O)NCC(=O)N[C@@H](C)C(=O)N1CCC[C@H]1C(=O)N1CCC[C@H]1C(=O)N1CCC[C@H]1C(=O)N[C@@H](CO)C(=O)O)C(C)C
B4: Compound A100 (peptide)
peptide: YSHGTFTSDYSKYLD[Aib]KRAQEFV[Aib]WLEDE-OH
modifications: N-terminus assumed
SMILES: CC(C)C[C@H](NC(=O)[C@H](Cc1ccc(O)cc1)NC(=O)[C@H](CCCCN)NC(=O)[C@H](CO)NC(=O)[C@H](Cc1ccc(O)cc1)NC(=O)[C@H](CC(=O)O)NC(=O)[C@H](CO)NC(=O)[C@@H](NC(=O)[C@H](Cc1ccccc1)NC(=O)[C@@H](NC(=O)CNC(=O)[C@H](Cc1c[nH]cn1)NC(=O)[C@H](CO)NC(=O)[C@@H](N)Cc1ccc(O)cc1)[C@@H](C)O)[C@@H](C)O)C(=O)N[C@@H](CC(=O)O)C(=O)NC(C)(C)C(=O)N[C@@H](CCCCN)C(=O)N[C@@H](CCCNC(=N)N)C(=O)N[C@@H](C)C(=O)N[C@@H](CCC(N)=O)C(=O)N[C@@H](CCC(=O)O)C(=O)N[C@@H](Cc1ccccc1)C(=O)N[C@H](C(=O)NC(C)(C)C(=O)N[C@@H](Cc1c[nH]c2ccccc12)C(=O)N[C@@H](CC(C)C)C(=O)N[C@@H](CCC(=O)O)C(=O)N[C@@H](CC(=O)O)C(=O)N[C@@H](CCC(=O)O)C(=O)O)C(C)C
B5: Compound A101 (peptide)
peptide: YGHGTFTSDHSKYLD[Aib]KRAQEFVKWLEDE-OH
modifications: N-terminus assumed
SMILES: CC(C)C[C@H](NC(=O)[C@H](Cc1c[nH]c2ccccc12)NC(=O)[C@H](CCCCN)NC(=O)[C@@H](NC(=O)[C@H](Cc1ccccc1)NC(=O)[C@H](CCC(=O)O)NC(=O)[C@H](CCC(N)=O)NC(=O)[C@H](C)NC(=O)[C@H](CCCNC(=N)N)NC(=O)[C@H](CCCCN)NC(=O)C(C)(C)NC(=O)[C@H](CC(=O)O)NC(=O)[C@H](CC(C)C)NC(=O)[C@H](Cc1ccc(O)cc1)NC(=O)[C@H](CCCCN)NC(=O)[C@H](CO)NC(=O)[C@H](Cc1c[nH]cn1)NC(=O)[C@H](CC(=O)O)NC(=O)[C@H](CO)NC(=O)[C@@H](NC(=O)[C@H](Cc1ccccc1)NC(=O)[C@@H](NC(=O)CNC(=O)[C@H](Cc1c[nH]cn1)NC(=O)CNC(=O)[C@@H](N)Cc1ccc(O)cc1)[C@@H](C)O)[C@@H](C)O)C(C)C)C(=O)N[C@@H](CCC(=O)O)C(=O)N[C@@H](CC(=O)O)C(=O)N[C@@H](CCC(=O)O)C(=O)O
B6: Compound A103 (peptide)
peptide: YSHGTFTSDYSKYLD[Aib]ARAQEFV[Aib]WLEDEPSSGAPPPS-OH
modifications: N-terminus assumed
SMILES: CC(C)C[C@H](NC(=O)[C@H](Cc1ccc(O)cc1)NC(=O)[C@H](CCCCN)NC(=O)[C@H](CO)NC(=O)[C@H](Cc1ccc(O)cc1)NC(=O)[C@H](CC(=O)O)NC(=O)[C@H](CO)NC(=O)[C@@H](NC(=O)[C@H](Cc1ccccc1)NC(=O)[C@@H](NC(=O)CNC(=O)[C@H](Cc1c[nH]cn1)NC(=O)[C@H](CO)NC(=O)[C@@H](N)Cc1ccc(O)cc1)[C@@H](C)O)[C@@H](C)O)C(=O)N[C@@H](CC(=O)O)C(=O)NC(C)(C)C(=O)N[C@@H](C)C(=O)N[C@@H](CCCNC(=N)N)C(=O)N[C@@H](C)C(=O)N[C@@H](CCC(N)=O)C(=O)N[C@@H](CCC(=O)O)C(=O)N[C@@H](Cc1ccccc1)C(=O)N[C@H](C(=O)NC(C)(C)C(=O)N[C@@H](Cc1c[nH]c2ccccc12)C(=O)N[C@@H](CC(C)C)C(=O)N[C@@H](CCC(=O)O)C(=O)N[C@@H](CC(=O)O)C(=O)N[C@@H](CCC(=O)O)C(=O)N1CCC[C@H]1C(=O)N[C@@H](CO)C(=O)N[C@@H](CO)C(=O)NCC(=O)N[C@@H](C)C(=O)N1CCC[C@H]1C(=O)N1CCC[C@H]1C(=O)N1CCC[C@H]1C(=O)N[C@@H](CO)C(=O)O)C(C)C

target: human glucagon receptor (GCGR) (human, UniProt P47871 26-477); experiment: cell-based or functional assay

Row | Binder | hGCGR pEC50 (cAMP) [pEC50]
1 | YSHGTFTSDYSKYLD[Aib]KRAQEFV[Aib]WLEDEPSSGKKPPS [Compound A88] | 13.8
2 | B1 | 13.6
3 | YSHGTFTSDYSKYLDAARAQEFVKWLEDEPKSKSPPPS-NH2 [Compound A80] | 12.5
4 | YSHGTFTSDYSKYLD[Aib]KRAQEFV[Aib]WLEDEKSSGKPPPS [Compound A87] | 13.6
5 | WSQGTFTSDYSKYLD[Aib]KRAQEFV[Aib]WLEDEPSSGKPPPS [Compound A91] | 12.8
6 | YSHGTFTSDYSKYLD[Aib]KRAQEFV[Aib]HLEDEPSSGKPPPS [Compound A89] | 12.7
7 | WSQGTFTSDYSKYLD[Aib]KAAQEFV[Aib]WLEDEPSSGKPPPS [Compound A93] | 10.9
8 | YSQGTFTSDYSKYLD[Aib]KRAQEFV[Aib]WLEDEPSSGKPPPS [Compound A86] | 13.3
9 | YSQGTFTSDYSKYLDSARAQEFVKWLEDEPKSKSPPPS [Compound A81] | 11
10 | YSHGTFTSDYSKYLDSARAQEFVKHLEDEPKSKSPPPS [Compound A84] | 9.4
11 | YSQGTFTSDYSKYLDSARAQEFVKWLEDEPKSKAPPPS [Compound A82] | 11
12 | YSHGTFTSDYSKYLDSARAQEFTKWLEDEPKSKSPPPS [Compound A83] | 10.2
13 | WSQGTFTSDYSKYLD[Aib]KAAQEFV[Aib]WLEDEPSSGAPPPS [Compound A92] | 10.7
14 | YSHGTFTSDYSKYLD[Aib]KAAQEFV[Aib]WLEDEPSSGKPPPS [Compound A90] | 13.1

target: human GLP-1 receptor (GLP-1R) (human, UniProt P43220 24-463); experiment: cell-based or functional assay
Sequence (P43220 24-463): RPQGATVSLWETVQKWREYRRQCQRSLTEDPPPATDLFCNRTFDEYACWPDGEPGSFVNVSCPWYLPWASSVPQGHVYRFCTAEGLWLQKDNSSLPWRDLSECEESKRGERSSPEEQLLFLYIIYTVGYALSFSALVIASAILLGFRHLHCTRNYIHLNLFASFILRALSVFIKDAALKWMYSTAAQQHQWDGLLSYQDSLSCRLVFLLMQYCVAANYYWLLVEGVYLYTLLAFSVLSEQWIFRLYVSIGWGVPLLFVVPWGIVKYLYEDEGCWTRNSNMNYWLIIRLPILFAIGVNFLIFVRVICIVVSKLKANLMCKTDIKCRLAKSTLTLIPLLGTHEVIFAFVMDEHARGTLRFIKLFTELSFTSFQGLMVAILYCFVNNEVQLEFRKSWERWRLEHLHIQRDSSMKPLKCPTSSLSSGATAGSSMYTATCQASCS

Row | Binder | hGLP1 pEC50 (cAMP) [pEC50]
15 | YSHGTFTSDYSKYLD[Aib]KRAQEFV[Aib]WLEDEPSSGKKPPS [Compound A88] | < 9
16 | B2 | < 9
17 | B1 | < 9
18 | YSHGTFTSDYSKYLDAARAQEFVKWLEDEPKSKSPPPS-NH2 [Compound A80] | < 9
19 | B3 | < 9
20 | YSHGTFTSDYSKYLD[Aib]KRAQEFV[Aib]WLEDEKSSGKPPPS [Compound A87] | < 9
21 | WSQGTFTSDYSKYLD[Aib]KRAQEFV[Aib]WLEDEPSSGKPPPS [Compound A91] | < 9
22 | YSHGTFTSDYSKYLD[Aib]KRAQEFV[Aib]HLEDEPSSGKPPPS [Compound A89] | < 9
23 | WSQGTFTSDYSKYLD[Aib]KAAQEFV[Aib]WLEDEPSSGKPPPS [Compound A93] | < 9
24 | YSQGTFTSDYSKYLD[Aib]KRAQEFV[Aib]WLEDEPSSGKPPPS [Compound A86] | < 9
25 | B4 | < 9
26 | YSQGTFTSDYSKYLDSARAQEFVKWLEDEPKSKSPPPS [Compound A81] | < 9
27 | YSHGTFTSDYSKYLDSARAQEFVKHLEDEPKSKSPPPS [Compound A84] | < 9
28 | YSQGTFTSDYSKYLDSARAQEFVKWLEDEPKSKAPPPS [Compound A82] | < 9
29 | YSHGTFTSDYSKYLDSARAQEFTKWLEDEPKSKSPPPS [Compound A83] | < 9
30 | B5 | < 9
31 | B6 | < 9
32 | WSQGTFTSDYSKYLD[Aib]KAAQEFV[Aib]WLEDEPSSGAPPPS [Compound A92] | < 9
33 | YSHGTFTSDYSKYLD[Aib]KAAQEFV[Aib]WLEDEPSSGKPPPS [Compound A90] | < 9
